From US20050288492A1 (MEDICAL RESEARCH COUNCIL, published 2005)

Assays:
[1] = biological target: β-galactosidase (non-relevant antigen bait in yeast) (UniProt P00722 1-1024 = β-galactosidase, limits assumed); experiment: yeast two-hybrid, scFv-VP16 prey (data not shown)
[2] = biological target: T1, LexA DBD (made from the empty pBTM116 vector) (UniProt P0A7C2 1-202); experiment: yeast two-hybrid, scFv-VP16 prey (data not shown)
T1 construct: domain: LexA DBD; Yeast bait control
T1 sequence (looked up): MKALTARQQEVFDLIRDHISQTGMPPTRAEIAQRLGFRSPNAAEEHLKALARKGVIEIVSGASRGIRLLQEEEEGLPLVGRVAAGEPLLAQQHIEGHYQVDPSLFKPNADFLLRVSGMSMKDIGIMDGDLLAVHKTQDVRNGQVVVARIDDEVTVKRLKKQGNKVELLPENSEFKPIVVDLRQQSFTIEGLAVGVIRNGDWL

BSA = biological target: T2, BSA (bovine, UniProt P02769); experiment: ELISA; BSA coated at 30 mg/ml, purified His-tagged scFv, detection with HRP anti-polyhistidine, absorption 450-650 nm
T2 construct: coated on the ELISA plate at 30 mg/ml as control antigen; also called bovine serum albumin

[3] = biological target: T3, Gal4 DBD fused to HRASG12V (codons 1-166) (mammalian bait from pM1-HRASG12V) (UniProt P04386 1-147; P01112 1-166); experiment: cell-based or functional assay
[4] = biological target: T4, Recombinant activated HRAS (G12V; residues 1-166), GppNp-bound (human, UniProt P01112 1-166, loaded with 5'-guanylylimidodiphosphate (GppNp), a non-covalent nucleotide); experiment: SPR (BIAcore 2000), HRASG12V-GppNp immobilised (about 1500 RU), purified scFv as analyte, Example 4; Example 4, BIAcore, FIG. 6B
T4 construct: range 1-166; Antigen of the ELISA and BIAcore assays; also called HRASG12V-GppNp; RASG12V-GppNp

[5] = biological target: T4, Recombinant activated HRAS (G12V; …); experiment: SPR, BIAcore 2000; HRASG12V-GppNp immobilised, purified scFv injected; BIAevaluation 2.1
[6] = biological target: T4, Recombinant activated HRAS (G12V; …); experiment: SPR (BIAcore 2000), purified His-tagged fragment on RAS antigen
[7] = biological target: T4, Recombinant activated HRAS (G12V; …); experiment: SPR (BIAcore 2000), Example 12
[8] = biological target: HRASG12V expressed in NIH3T3 cells from pZIPneoSV(X)-HRASG12V (UniProt P01112 1-186, limits assumed); experiment: cell-based or functional assay
[9] = biological target: T3, Gal4 DBD fused to HRASG12V (codons …); experiment: COS7 luciferase reporter with HRAS, KRAS or NRAS (data not shown)
[10] = biological target: T4, Recombinant activated HRAS (G12V; …); experiment: SPR (BIAcore 2000), HRASG12V-GppNp immobilised (about 1500 RU), purified scFv as analyte, Example 4

B1: anti-RAS scFv33 (scFv)
scFv: QVQLVEAGGGLVQPGGSLRLSCAASGFSFSTFSMNWVRQAPGKGLEWVSYISSSGRTIYYADSVKGRFTISRDNAKNSLYLQMNSLRDEDTAVYYCARGRFFDYWGQGTLVTVSSGGGGSGGGGSGGGGSDIVMTQSPSFLSASVGDRVTITCRASQSISRYLNWYQQKPGKAPKLLIYAASSLQSGVPSRFSGSGSGTDFTLTISSLQPEDFAIYYCQQSYSTLLTFGGGTKLEIKR
notes: ELISA and BIAcore: purified from periplasm with C-terminal His6-tag and myc-tag; Two-hybrid: fused to VP16 AD; Co-location: with nls and myc-tag; also called ICAb 33
[1]
  binding result: no binding
[2]
  binding result: no binding
BSA
  binding result: no binding (tested: 450 ng per well (legend))
[3]
  luciferase reporter activation in COS7 cells: > 10 fold
[4]
  Kd: 1.39 nM
[5]
  Kd: 9.97 nM
  koff: 0.00113 s⁻¹
  kon: 176000 M⁻¹ s⁻¹
[6]
  koff: 0.00113 s⁻¹
  kon: 176000 M⁻¹ s⁻¹
[7]
  Kd: ~10 nM

B2: anti-RAS scFv J48 (scFv)
scFv: QVQLVEAGGGLVQPGGSLRLSCAASGFSFSYLYMNWVRQAPGKGLEWVSYISSSGRTIYYADSVKGRFTISRDNAKNSLYLQMNSLRDEDTAVYYCARGRFFDYWGQGTLVTVSSGGGGSGGGGSGGGGSDIVMTQSPSFLSASVGDRVTITCRASQSISRYLNWYQQKPGKAPKLLIYAASSLQSGVPSRFSGSGSGTDFTLTISSLQPEDFAIYYCQQSYSTLLTFGGGTKLEIKR
notes: Same formats as scFv33 (His6/myc purified; VP16 fusion; nls-myc)
[1]
  binding result: no binding
[2]
  binding result: no binding
BSA
  binding result: no binding (tested: 450 ng per well (legend))
[3]
  luciferase reporter activation in COS7 cells: > 10 fold
[4]
  Kd: 3.63 nM
[5]
  Kd: 2.6 nM
  koff: 0.00482 s⁻¹
  kon: 1.87e+06 M⁻¹ s⁻¹

B3: IDab anti-RAS #3 (other)
VH: QVQLVESGGGLVQPGGSLRLSCAASGFTFSSYAMHWVRQAPGKGLEWVSVISKLTHHTYYADSVKGRFTISRDNSKNTLYLQMNSLRAEDTAVYYCARGVQGYVHGLKGNWFDYWGQGTLVTVSS
notes: also called anti-RAS clone #3; clone 3
[6]
  koff: 0.00104 s⁻¹
  kon: 5660 M⁻¹ s⁻¹
[7]
  Kd: ~180 nM

B4: IDab anti-RAS #6 (other)
VH: EVQLLESGGGLVQPGGSLRLSCAASGFSFSTFSMNWVRQAPGKGLEWVSYISRTSKTIYYADSVKGRFTISRDNSKNTLYLQMNSLRAEDTAVYYCARGRFFDYWGQGTLVTVSS
[8]
  transforming activity in NIH3T3 cells, relative to HRASG12V alone: < 10%

B5: IDab anti-RAS #12 (other)
VH: EVQLLESGGGLVQPGGSLRLSCAASGFSFSVWAMSWVRQAPGKGLEWVSYISRTSKTIYYADSVKGRFTISRDNSKNTLYLQMNSLRAEDTAVYYCARGRFFDYWGQGTLVTVSS
[9]
  binding result: binds
[7]
  Kd: ~26 nM

B6: IDab 33 (single VH domain of anti-RAS scFv33) (other)
VH: QVQLVEAGGGLVQPGGSLRLSCAASGFSFSTFSMNWVRQAPGKGLEWVSYISSSGRTIYYADSVKGRFTISRDNAKNSLYLQMNSLRDEDTAVYYCARGRFFDYWGQGTLVTVSS
notes: also called 33VH; VH from intrabody anti-RAS scFv33
[6]
  koff: 0.0144 s⁻¹
  kon: 12500 M⁻¹ s⁻¹
[7]
  Kd: ~90 nM

B7: anti-RAS scFv I21 (scFv)
scFv: EVQLLESGGGLVQPGGSLRLSCAASGFTFSSYAMSWVRQAPGKGLEWVSTISYGGSNTNYADSVKARFTISRDNSKNTLYLQMNSLRAEDTAVYYCAKGNNAFDYWGQGTLVTVSSGGGGSGGGGSGGGGSTDIQMTQSPSSLSASVGDRVTITCRASQSISSYLNWYQQKPGKAPKLLIYNASALQSGVPSRFSGSGSGTDFTLTISSLQPEDFATYYCQQYTSTPRTFGQGTKVEIKR
notes: also called ICAb I21
[1]
  binding result: no binding
[2]
  binding result: no binding
[10]
  Kd: 2160 nM
BSA
  binding result: no binding (tested: 450 ng per well (legend))
[5]
  Kd: 1310 nM
  koff: 0.0212 s⁻¹
  kon: 16700 M⁻¹ s⁻¹
